In patent US20210388105A1 (ELPISCIENCE SUZHOU BIOPHARMA, published 2021):
One block for each binder: values may come before it.

What was measured:
[1] = molecular target: T1, human CD39 (protein; form not stated) (human, UniProt P49961 38-478, limits assumed); assay: Octet (BLI)
T1 construct: also called ENTPD1; ENTPDase 1
T1 sequence: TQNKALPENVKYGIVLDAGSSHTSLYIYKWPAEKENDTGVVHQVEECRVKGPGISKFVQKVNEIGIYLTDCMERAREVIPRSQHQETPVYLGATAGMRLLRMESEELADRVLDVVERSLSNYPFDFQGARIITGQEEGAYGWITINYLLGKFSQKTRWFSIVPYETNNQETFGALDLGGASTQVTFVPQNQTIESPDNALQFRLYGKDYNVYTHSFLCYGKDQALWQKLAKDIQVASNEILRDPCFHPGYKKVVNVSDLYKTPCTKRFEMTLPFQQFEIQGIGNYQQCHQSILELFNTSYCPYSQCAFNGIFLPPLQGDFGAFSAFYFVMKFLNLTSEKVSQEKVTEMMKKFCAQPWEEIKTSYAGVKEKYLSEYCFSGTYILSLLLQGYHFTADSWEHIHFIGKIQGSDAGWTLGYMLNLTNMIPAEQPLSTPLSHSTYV

[2] = molecular target: T2, mouse CD39 (full length, on CHOK1-mCD39 cells) (mouse, UniProt P55772 1-510); assay: FACS on CHO-k1/mCD39 cells, MFI [Continued) E]
T2 construct: whole, on cells
T2 sequence (looked up): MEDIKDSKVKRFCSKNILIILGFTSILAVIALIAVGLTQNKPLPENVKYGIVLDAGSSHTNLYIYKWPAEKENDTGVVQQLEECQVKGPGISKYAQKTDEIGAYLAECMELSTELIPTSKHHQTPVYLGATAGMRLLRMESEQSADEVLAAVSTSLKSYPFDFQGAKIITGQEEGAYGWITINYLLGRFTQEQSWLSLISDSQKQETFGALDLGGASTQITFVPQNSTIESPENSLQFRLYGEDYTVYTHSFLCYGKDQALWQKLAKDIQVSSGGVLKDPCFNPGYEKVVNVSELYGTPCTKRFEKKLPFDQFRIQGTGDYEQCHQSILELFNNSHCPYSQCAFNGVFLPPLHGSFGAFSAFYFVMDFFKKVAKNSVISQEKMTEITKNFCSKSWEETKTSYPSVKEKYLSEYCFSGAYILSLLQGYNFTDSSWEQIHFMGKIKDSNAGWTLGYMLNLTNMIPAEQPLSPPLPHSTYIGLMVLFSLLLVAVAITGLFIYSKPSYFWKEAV

[3] = molecular target: T3, human CD39 (full length, on cells) (human, UniProt P49961 1-510); assay: cell-based or functional assay
T3 sequence: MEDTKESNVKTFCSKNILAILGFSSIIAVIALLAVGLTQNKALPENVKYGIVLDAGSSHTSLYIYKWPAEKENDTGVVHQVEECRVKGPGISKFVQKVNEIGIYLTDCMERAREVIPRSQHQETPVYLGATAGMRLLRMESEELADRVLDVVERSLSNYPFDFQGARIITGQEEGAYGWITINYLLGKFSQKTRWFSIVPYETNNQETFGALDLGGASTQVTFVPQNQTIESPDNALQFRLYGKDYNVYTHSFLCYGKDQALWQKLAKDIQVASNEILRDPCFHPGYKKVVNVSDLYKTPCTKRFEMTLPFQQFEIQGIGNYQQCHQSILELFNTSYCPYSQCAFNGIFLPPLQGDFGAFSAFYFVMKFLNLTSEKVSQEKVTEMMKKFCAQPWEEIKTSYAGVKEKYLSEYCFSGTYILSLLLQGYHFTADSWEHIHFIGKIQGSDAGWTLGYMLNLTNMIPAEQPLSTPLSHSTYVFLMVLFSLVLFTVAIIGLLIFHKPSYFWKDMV

[4] = molecular target: T1, human CD39 (protein; form not stated); assay: ELISA on coated ENTPD1 (CD39) protein, anti-hIgG-HRP, OD450
Description: Binding specificity of the purified humanized antibody hu23.H5L5 against ENTPDase family members was detected by ELISA assay. Briefly, ENTPD1 (i.e. CD39) and ENTPD 2/3/5/6 proteins were coated on 96-well ELISA plates at 4° C. overnight, next day the ELISA plates were washed and blocked using blocking buffer (1% BSA in PBS with 0.05% Tween20) 200 μL/well for 2 hours. Then hu23.H5L5 gradients were duplicated into the wells and stained with anti-hIgG-HRP. After plate washing, the plates were developed with TMB substrate and stopped by 2N HCl. The OD450 were recorded using plate reader and platted by Graphpad Prism.

Kd [1]: 0.24 nM
B1: mAb14 (antibody, V domains shown)
VH: EVKLEESGGGLVQPGGSMKLSCVASGFTFSKYWMNWVRQSPEKGLEWVAEIRLKSNKYGTHYAESVKGRFTISRDDSKNNVYLQMNNLRPEDTGIYYCTTQLDLYWFFDVWGAGTTVTVSS
VL: DIVMTQSPAILSVTPGDRVSLSCRASQSISDYLHWYQQKSHESPRLLIKYASQSISGIPSRFSGSGSGSNFTLSINSVEPEDVGVYFCQNGHSLPLTFGAGTKLELR
notes: mouse hybridoma antibody

binding result [2]: no binding | ATPase inhibition IC50 on SK-MEL-28 cells [3]: 0.122 nM | EC50 (read off the curve) [4]: ~4 nM
B2: hu23.H5L5 (antibody, V domains shown)
VH: QVQLVQSGAEVKKPGASVKVSCKASGYNLKDTFLHWVRQAPGQGLEWMGRIDPANGNIKYDPKFQGRVTITADTSANTAYMELISLRSEDTAVYYCANSPYYYGSGYRIFDVWGQGTTVTVSS
VL: QIVLTQSPATLSLSPGERATLSCSAFSSVNYMHWYQQKPGQAPRLLIYTTSNLASGIPTRFSGSGSGTSYTLTISSLEPEDFAVYYCQQRSTYPFTFGQGTKLEIK
notes: humanized c23
